Assays:
[1] = test system: K4 kissing-loop RNA reporter; test: apparent KD of K4 kissing-loop reporter; higher = weaker reporter binding; settings: Eterna round: R107;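 also: bound reporter read as fluorescence of individual clusters on recovered sequencing chips by microscopy, with normalized cluster intensities fitted with a binding model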
Description: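 RNA-MaP round R107: designed RNA switches with theophylline, tryptophan, arginine or FMN aptamers are transcribed on-chip within common flanks. They are titrated with a labelled K4 kissing-loop RNA reporter in RNA-MaP buffer (100 mM Tris pH 7.5, 80 mM KCl, 4 mM MgCl2), without ligand or with the indicated ligand. Median apparent KD per design.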

MS2 coat protein = test: apparent KD of MS2 coat protein; designed switch direction (-1 OFF switch, 1 ON switch): -1; higher = weaker reporter binding
Summary of the method: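 The reported apparent KD is a per-design median over clusters, from curve fits of normalised cluster fluorescence. Protein titrations used SNAP-549-labelled MS2 coat protein, doubled from 0.7 or 1.5 nM to 3 µM, in Tris-HCl pH 7.5 buffer with KCl, MgCl2, BSA, DTT, tRNA and Tween-20, with no input, 200 uM small-molecule ligand, or an oligonucleotide input. The RNA switches were transcribed on Illumina chips by stalled E. coli RNA polymerase.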

[2] = input ligand: theophylline 20 uM
[3] = input ligand: tryptophan 2.4 mM
[4] = input ligand: microRNA oligo, concentration not stated
[5] = Eterna round: R95, input ligand: microRNA oligo, concentration not stated
[6] = Eterna round: R95, input ligand: FMN 200 uM
[7] = Eterna round: R95, input ligand: none

Row | Sequence | apparent KD of MS2 coat protein (MS2 coat protein; input ligand: FMN 200 uM) | apparent KD of MS2 coat protein (MS2 coat protein; input ligand: none) | apparent KD of MS2 coat protein (MS2 coat protein; [5]) | other results
1 | AAAAUAAACCAGUGAUGUUGGUGUCCAGAUACCAGCGACAAAAGUCGCCCUUGGCAGCUGUGGACGUACAAAAUAAGUACGUCCU [MatMod 1 - Jieux - Same State - Theophylline A] |  |  |  | apparent KD of K4 kissing-loop reporter ([1]; input ligand: FMN 200 uM): 390 nM; apparent KD of K4 kissing-loop reporter ([1]; input ligand: arginine 13.2 mM): 271 nM; apparent KD of K4 kissing-loop reporter ([1]; input ligand: none): 393 nM; apparent KD of K4 kissing-loop reporter [1, 2]: 256 nM; apparent KD of K4 kissing-loop reporter [1, 3]: 316 nM
2 | AAACAUCACUGGGAGUGAUGUUCUCAGUGACGAGGACCGGUACGGCCGCCACUCGCGAGAGAUAUAAAUGAGUAAUGACAUCAUU [Excl Tryptophan A V2] |  |  |  | apparent KD of K4 kissing-loop reporter ([1]; input ligand: FMN 200 uM): 276 nM; apparent KD of K4 kissing-loop reporter ([1]; input ligand: arginine 13.2 mM): 236 nM; apparent KD of K4 kissing-loop reporter ([1]; input ligand: none): 280 nM; apparent KD of K4 kissing-loop reporter [1, 2]: 258 nM; apparent KD of K4 kissing-loop reporter [1, 3]: 325 nM
3 | UUUAUAUAGUAAGGAUAUGUAUUAAUUUUAUCAACAGAAGGUACUGACAUGAGGAUCACCCAUGUUUUAGUGUGGGCAUGUAGU [JMF's solution 93] (Eterna round: R96, puzzle: Exclusion NG 1) | 543 nM | 536 nM |  | apparent KD of MS2 coat protein (MS2 coat protein; [4]): 493 nM
4 | UUUAUGUCAGGAUAUACAUGAGGAUCACCCAUGUAUAUCUUAAAGUAUACAUGGGAAUGUAGAAGGGACGUCCU [LRO-Excl05-29-mod of Pseudoloop5 by Omei] (Eterna round: R97, puzzle: Exclusion 3) | 31.3 nM | 30.2 nM |  | 
5 | UUUAUGUGAGGAUAUGCGGGCGGGCGUGAAAAUGUUUGUUUGUAGAAGGUACAUGAGGAUCACCCAUGUAGUGG [-22, -21.6 kcal, 24% A] (Eterna round: R97, puzzle: Exclusion 4) | 180 nM | 57.2 nM |  | 
6 | UUUAUUUUGCAAGGAUAUGUUUAAUUUUAGUUUCCUUAUACAUGAGGAUCACCCAUGUUAUACUUACAGAAGGUGCAUAAUUUU [JR_ExcNG2_Sub037] (Eterna round: R96, puzzle: Exclusion NG 2) |  |  |  | apparent KD of MS2 coat protein (MS2 coat protein; [4]): 68.7 nM
7 | UUUCCCGUUCAGGCUGGAAACAUGAGGAUCACCCAUGUUCAAUCGGUUCUGUUAGCUGCUCGUCUUUUACACUUUCC [Eternabot (L1) Solution 39] (Eterna round: R97, puzzle: Sensor, turn-off variant 1) | 20.5 nM | 20.3 nM |  | 
8 | UUUCCCUGUGUGAGGAUAUACUUGUUUGGGUUUUUGUAGAAGGCACAUGAGGAUCACCCAUGUACUCUGUCCUG [JR_BME4_Sub022] (puzzle: Brourd's mod of Exclusion 4) |  |  | 22.1 nM | 
9 | UUUGAUUGCACAGGAUAUUGUCAUUUGAGUUGUCAAGAAGGGUGUACAUGAGGAUCACCCAUGUAAUGGUUGCCUCGCUGACUU [JR_ExcNG1_Sub008] (Eterna round: R96, puzzle: Exclusion NG 1) |  |  |  | apparent KD of MS2 coat protein (MS2 coat protein; [4]): 77.1 nM
10 | UUUGCAAGCUAAAGAUCCCACAUGAGGAUCACCCAUGUUGCUGCCGUGAGGUAGCAUUUAACUUUUGCUCGUCUUAU [JL TOV1 3.49] (Eterna round: R97, puzzle: Sensor, turn-off variant 1) | 282 nM | 300 nM |  | 
11 | UUUGUACAUGAGGAUCACCCAUGUUAGGAUAUCUCGCCGUCGGCUUGCCGACGGUAUUAGAGAAGGGACAAGGG [JL Tixe mod 8] (puzzle: Exclusion 1) |  |  | 94.2 nM | 
12 | UUUGUUUAUGUAGGAUAUGCCUGGCGUGCCUUCGCAGAAGGACAUGAGGAUCACCCAUGUAUUGCGGUCUGCGUUCAGAUCGCA [salish99_ExNG1_r4_031] (Eterna round: R96, puzzle: Exclusion NG 1) | 72.6 nM | 42.5 nM |  | apparent KD of MS2 coat protein (MS2 coat protein; [4]): 30 nM
13 | UUUUAACAUGAGGAUCACCCAUGUGAGGAUAUCGAAAUUUAUAUUAAUAUUAAUAUAACGAGAAGGCACAUUUU [JMF 23] (puzzle: Exclusion 1) |  |  | 47.2 nM | 
14 | UUUUAACAUGAGGAUCACCCAUGUGAGGAUAUCGAAAUUUAUAUUAAUAUUAAUAUUACGAGAAGGCACAUUUU [JMF 26] (puzzle: Exclusion 1) |  |  | 77 nM | 
15 | UUUUAACAUGAGGAUCACCCAUGUGAGGAUAUCGAAAUUUAUAUUAAUAUUAUUAUAUCGAGAAGGCACAUUUU [JMF 40] (puzzle: Exclusion 1) |  |  | 86.6 nM | 
16 | UUUUAACAUGAGGAUCACCCAUGUGAGGAUAUCGAAAUUUAUAUUAAUAUUAUUUUAACGAGAAGGCACAUUUU [JMF 47] (puzzle: Exclusion 1) |  |  | 67.2 nM | 
17 | UUUUAACAUGAGGAUCACCCAUGUGAGGAUAUCGAAAUUUAUAUUAAUAUUUAUUAUACGAGAAGGCACAUUUU [JMF 62] (puzzle: Exclusion 1) |  |  | 77.5 nM | 
18 | UUUUAACAUGAGGAUCACCCAUGUGAGGAUAUCGAAAUUUAUAUUUAUAUUAAUAAAUCGAGAAGGCACAUUUU [JMF 76] (puzzle: Exclusion 1) |  |  | 119 nM | 

Row | Sequence | apparent KD of MS2 coat protein (MS2 coat protein; input ligand: FMN 200 uM) | apparent KD of MS2 coat protein (MS2 coat protein; input ligand: none) | apparent KD of MS2 coat protein (MS2 coat protein; [5]) | other results
19 | UUUUAACAUGAGGAUCACCCAUGUGAGGAUAUCGAAAUUUAUAUUUAUAUUUAUAUUUCGAGAAGGCACAUUUU [JMF 97] (puzzle: Exclusion 1) |  |  | 131 nM | 
20 | UUUUAACAUGAGGAUCACCCAUGUGAGGAUAUCGAUAUUUUUAUUAAUAUUAAUAAAACGAGAAGGCACAUUUU [JMF 15] (puzzle: Exclusion 1) |  |  | 65.4 nM | 
21 | UUUUACAUAGGAUAUAGUUUCUUUUACAUGAGGAUCACCCAUGUUUCUCUUCUCUCUCUUCUAGAAGGAUGUUUCU [JR_E5_Sub013] (puzzle: Exclusion 5) |  |  | 33.5 nM | 
22 | UUUUAGCUAGGAUAUACAUUUUUUUUAUUAUCCUCAUUAUUACAUGAGGAUCACCCAUGUAGAAGGAGCAUUUU [My Design] (puzzle: Exclusion 2) |  |  | 219 nM | 
23 | UUUUAGGCAGGAUAUACAUUUUUUUUAUUAUCCUCAUUAUUACAUGAGGAUCACCCAUGUAGAAGGGCCAUUUU [My Design] (puzzle: Exclusion 2) |  |  | 38.5 nM | 
24 | UUUUAGUCAGGAUAUACAUGAGGAUCACCCAUGUAAAAUUUUAAUUUAAUUUUAAGGUGUAGAAGGGACAAUAA [Ex3 #8] (Eterna round: R97, puzzle: Exclusion 3) | 32.2 nM | 31.3 nM |  | 
25 | UUUUGGCAUGUAGGAUAUGGGUCCGAUUAGGAUUUAGAAGGACAUGAGGAUCACCCAUGUGCCCUUACUUGGUCUUUUUUUUUU [EXclNG1-LROPPY18] (Eterna round: R96, puzzle: Exclusion NG 1) | 52.3 nM | 41.2 nM |  | apparent KD of MS2 coat protein (MS2 coat protein; [4]): 19.2 nM
26 | UUUUUACAUGAGGAUCACCCAUGUGAGGAUAUGGAGCGCGACCGCGCGGUCGCGUACACCAGAAGGCGCAGGAA [1st #75] (Eterna round: R97, puzzle: Exclusion 1) | 30.6 nM | 24.9 nM |  | 
27 | UUUUUACGAGGAUAUCGUUUUUUUCACAUGAGGAUCACCCAUGUUGUUUAUGUUGCGUUGCGAGAAGGCGUUUGUU [JR_E5_Sub063] (puzzle: Exclusion 5) |  |  | 24.2 nM | 
28 | UUUUUAUAUGAAGGAUAUACUAAACAUGAGGAUCACCCAUGUGGUGUUGUGAGUGAGAGAGAUAAGUAGAAGGUCAAUUAUUUU [JMF's solution 4] (Eterna round: R96, puzzle: Exclusion NG 2) | 348 nM | 90.8 nM |  | apparent KD of MS2 coat protein (MS2 coat protein; [4]): 62.6 nM
29 | UUUUUAUAUGAAGGAUAUACUUAACAUGAGGAUCACCCAUGUGGUGUUGUGAGUGAGUGAGUUUAGUAGAAGGUCAAGUAUUAU [JMF's solution 38] (Eterna round: R96, puzzle: Exclusion NG 2) | 776 nM | 464 nM |  | apparent KD of MS2 coat protein (MS2 coat protein; [4]): 265 nM
30 | UUUUUCGGACAAGCUACGUACAUGAGGAUCACCCAUGUCGGUAGAUUUGAGUAGGUUUGGAUGGAAGCUCGUCUUAU [JR_SV3TOV1_Sub084] (puzzle: Sensor v3, turn-off variant 1) |  |  | 53.5 nM | apparent KD of MS2 coat protein (MS2 coat protein; [6]): 40.9 nM; apparent KD of MS2 coat protein (MS2 coat protein; [7]): 53.2 nM
31 | UUUUUCUCAGGAUAUACAUGAGGAUCACCCAUGUAUAUUAAAAAUAAUACAUGGGAAUGUAGAAGGGAGCUCAU [Omei Ex3 Pseudoloop 9] (Eterna round: R97, puzzle: Exclusion 3) | 141 nM | 161 nM |  | 
32 | UUUUUGUCAGGAUAUGCAUGUUUUUUUUUUUUUUUUUUCAUGCAGAAGGGACAUGAGGAUCACCCAUGUAGUUU [Ex4 - 3 - 10] (Eterna round: R96, puzzle: Exclusion 4) | 53.7 nM | 63.2 nM |  | apparent KD of MS2 coat protein (MS2 coat protein; [4]): 61.7 nM
33 | UUUUUGUCAGGAUAUGCAUGUUUUUUUUUUUUUUUUUUCAUGCAGAAGGGACAUGAGGAUCACCCAUGUAGUUU [Ex4 - 3 - 10] (puzzle: Exclusion 4) |  |  | 23.4 nM | apparent KD of MS2 coat protein (MS2 coat protein; [6]): 34.3 nM; apparent KD of MS2 coat protein (MS2 coat protein; [7]): 37.9 nM
34 | UUUUUGUGAGGAUAUCAGUAGUAAAAAAAUAAAAUUACUACUGAGAAGGCACAUGAGGAUCACCCAUGUUUUUU [salish99_ex4_r3_013] (puzzle: Exclusion 4) |  |  | 43.3 nM | 
35 | UUUUUGUGAGGAUAUCAGUAGUAAAUAAAUAAAAUUACUACUGAGAAGGCACAUGAGGAUCACCCAUGUUUUUU [Mat - Exclusion 4 - Mod of Salish - D68] (puzzle: Exclusion 4) |  |  | 41.8 nM | 
36 | UUUUUUUUGCGAGGAUAUGCUUUUAGUUAGUUAGCAGAAGGCGCGUUUCUUUUCUCCUCUUCUUACAUGAGGAUCACCCAUGUU [JR_ExcNG1_Sub034] (Eterna round: R96, puzzle: Exclusion NG 1) | 55.7 nM | 54.1 nM |  | apparent KD of MS2 coat protein (MS2 coat protein; [4]): 36.7 nM
